From patent US7235629B2, “Functional fragment of the leptin receptor” (Vlaams Interuniversitair Instituut voor Biotechnologie VZW, priority 2000, dated 2007) come the findings set out here.

One assay addresses T1, FLAG-tagged SOCS3 (Rattus norvegicus, UniProt O88583).
T1 construct: expressed in transfected cells; host or cells: HEK293T cells (transient transfection; cleared lysate used)
T1 sequence (O88583 1-225): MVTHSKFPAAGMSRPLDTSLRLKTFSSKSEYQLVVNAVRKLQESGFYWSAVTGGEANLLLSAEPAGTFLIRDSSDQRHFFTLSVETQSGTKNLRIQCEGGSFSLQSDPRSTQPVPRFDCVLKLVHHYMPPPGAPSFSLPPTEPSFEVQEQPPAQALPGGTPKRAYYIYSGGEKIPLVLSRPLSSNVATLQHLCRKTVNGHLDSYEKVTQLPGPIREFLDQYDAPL
Kind of assay: Phosphopeptide affinity chromatography with anti-FLAG Western blot: SOCS3 binding to biotinylated leptin receptor peptides. To be noted: lysates of about 3×10^7 HEK293T cells transfected with pMET7-fSOCS3; 5 nmoles biotinylated peptide on streptavidin-agarose; two hours at 4° C. The text has this: Monoclonal anti-FLAG antibody M2 was obtained from Sigma. Mouse recombinant leptin was purchased from R&D Systems. Peptides were synthesized using standard Fmoc-amino-acid solid phase chemistry on an Applied Biosystems Model 431A peptide synthesizer. Biotin was manually esterified following similar procedures as on the synthesizer and added to the reaction mixture. Incorporation of phosphotyrosine was realized by using a protected Fmoc-tyrosine-phosphobenzylester (Novabiochem). After purification, the mass of the peptides was confirmed by mass spectrometry. Sequences of the peptides were biotin-QRQPSVK(p)Y985ATLVSNDK (SEQ ID NO:7) and biotin-NHREKSVC(p)Y1077 LGVTSVNR (SEQ ID NO:8).
Approximately 10^6 HEK293T cells were lysed in 150 μl 2× loading buffer. After sonication, 30 μl was loaded on a 10% polyacrylamide gel. […] Blotting efficiency was checked using PonceauS staining (Sigma).
For phosphopeptide affinity chromatography, approximately 3×10^7 HEK293T cells transiently transfected as indicated were lysed in lysis buffer (20 mM Hepes pH 7; 1 mM MgCl2; 10 mM KCl; 0.5 mM DTT; 150 mM NaCl; 0.5% NP40; 1 mM NaVO4; 5 mM NaF; 20% glycerol; Complete™ Protease Inhibitor Cocktail (Roche)). Precipitated material was cleared by 5 minutes centrifugation at 10,000 g. To eliminate a-specific interactions, supernatants were brought on a pre-column containing Sepharose 4B beads prior to phosphopeptide affinity chromatography on streptavidin-coupled agarose beads (Sigma). Peptide concentrations were determined by a colorimetric assay using alkaline hydrolysis and a ninhydrine reagent. Fifty μl of streptavidin-agarose slurry was incubated with 5 nmoles of peptide for each reaction. Cleared lysate was incubated for two hours at 4° C. under slow stirring. […]
The interaction sites of SOCS3 with the leptin receptor were confirmed using a biochemical approach. FLAG-tagged SOCS3 was expressed upon transient transfection of pMET7-fSOCS3 in HEK293T cells and was analyzed for binding to (phospho)-tyrosine-containing peptides matching the two motifs within the leptin receptor. […]
Background: A western blot detects proteins with antibodies after separation by electrophoresis.

In assay [1] the target is murine leptin receptor, long isoform, Y985F (mouse), P48356. Nature of the assay: cell-based or functional assay.
The target in assay [2] is murine leptin receptor, long isoform, Y1077F (mouse), P48356. Nature of the assay: cell-based or functional assay.
The target of assay [3] is murine leptin receptor, long isoform, wild type (mouse), P48356. Nature of the assay: cell-based or functional assay.
For assay [4], the system named is leptin receptor. Nature of the assay: rPAP1-luciferase reporter assay of leptin signalling in HEK293T cells co-transfected with leptin receptor variants and SOCS3. In kind it is cell-based, murine. To be noted: 24 hours leptin. The procedure: HEK293T cells were maintained in a 10% CO2 humidified atmosphere at 37° C. and grown using DMEM with 4500 mg/l glucose, 10% fetal bovine serum and 50 μg/ml gentamycin (all from LifeTechnologies). Typically, 4×10^5 cells were seeded the day before transfection in a 6-well plate and transfected overnight with approximately 2 μg plasmid DNA using a standard calcium phosphate precipitation procedure. One day after transfection, cells were re-suspended with Cell Dissociation Agent (LifeTechnologies), seeded in a black well plate (Costar) and stimulated overnight with […] leptin or left unstimulated.
(§1) Luciferase assays, binding assays using Leptin-SEAP and Northern blot hybridizations with SOCS3 and actin probes were described previously by Eyckerman et al. (1999). β-galactosidase activity was measured using the Galacto-Star™ chemiluminescent detection kit (Tropix) and a Topcount Chemiluminescence Counter (Packard).
Based on its functional similarity with the gp130 chain, the leptin receptor was tested for interaction with SOCS3. Leptin receptor variants containing Y to F mutations at positions Y985, Y1077, or at both sites, were tested in a functional assay based on rPAP1-induction. Signalling via the leptin receptor variants was analyzed upon transient transfection in HEK293T cells with the pXP2d2-rPAP11uci and the FLAG-tagged pMET7-fSOCS3 expression construct. Luciferase activity data were normalized by co-transfection with pUT651 and a β-galactosidase activity assay.
Expression of leptin receptor variants and SOCS3 were confirmed, respectively, by a binding assay using a leptin-SEAP fusion protein and Western blot analysis using an anti-FLAG antibody (FIG. 3). LR expression levels were measured on transfected cells by incubation for 90 minutes with Leptin-SEAP fusion protein with or without excess leptin (100×). The transfected cells were stimulated for 24 hours with leptin or left untreated. Luciferase measurements were performed in triplicate and were normalized by co-transfection with the pUT651 β-galactosidase construct and a β-galactosidase activity assay. The results indicated a strong inhibitory activity of SOCS3 (80-90% inhibition) when the wild-type or the mutant Y1077F leptin receptor was expressed, and a moderate inhibition (30-50% inhibition) upon expression of a Y985F receptor variant.
(Reporter assays use an easily measured gene product as a stand-in for the process of interest.)

The test system of assay [5] is leptin receptor. Nature of the assay: Leptin-induced pGL3-rPAP1-luci reporter induction in PC12 LR8 cells transiently expressing SOCS3. The class given is cell-based, mouse. The following applies: leptin 24 hours. The procedure:
FIG. 1: Expression of SOCS3 leads to inhibition of leptin-induced rPAP1 expression in PC12 cells. PC12 LR8 cells were co-transfected with a plasmid encoding SOCS3 (pMET7fSOCS3) or empty vector (mock, pMET7), and a pGL3-rPAP11 reporter construct. Forty-eight hours after transfection, the cells were stimulated with leptin or left untreated. Luciferase activity was measured in triplicate after 24 hours. CPS: absolute luminescence counts per second; NS: nonstimulated negative control.
Culture conditions and transient transfection procedures for PC12 and generation of the PC12LR8 cell line were as previously described. (Eyckerman et al., 1999; Waelput et al., 2000.)
as §1
Through representational difference analysis, a PCR-based differential expression screening in PC12 cells expressing the mouse leptin receptor, several leptin-induced transcripts (including SOCS3) were identified. In order to check the inhibitory role of SOCS3 on leptin signaling in the cell systems used, an expression vector containing rat SOCS3 was generated. […]

Sequence of murine leptin receptor, long isoform, wild type (mouse), P48356 (P48356 22-1162): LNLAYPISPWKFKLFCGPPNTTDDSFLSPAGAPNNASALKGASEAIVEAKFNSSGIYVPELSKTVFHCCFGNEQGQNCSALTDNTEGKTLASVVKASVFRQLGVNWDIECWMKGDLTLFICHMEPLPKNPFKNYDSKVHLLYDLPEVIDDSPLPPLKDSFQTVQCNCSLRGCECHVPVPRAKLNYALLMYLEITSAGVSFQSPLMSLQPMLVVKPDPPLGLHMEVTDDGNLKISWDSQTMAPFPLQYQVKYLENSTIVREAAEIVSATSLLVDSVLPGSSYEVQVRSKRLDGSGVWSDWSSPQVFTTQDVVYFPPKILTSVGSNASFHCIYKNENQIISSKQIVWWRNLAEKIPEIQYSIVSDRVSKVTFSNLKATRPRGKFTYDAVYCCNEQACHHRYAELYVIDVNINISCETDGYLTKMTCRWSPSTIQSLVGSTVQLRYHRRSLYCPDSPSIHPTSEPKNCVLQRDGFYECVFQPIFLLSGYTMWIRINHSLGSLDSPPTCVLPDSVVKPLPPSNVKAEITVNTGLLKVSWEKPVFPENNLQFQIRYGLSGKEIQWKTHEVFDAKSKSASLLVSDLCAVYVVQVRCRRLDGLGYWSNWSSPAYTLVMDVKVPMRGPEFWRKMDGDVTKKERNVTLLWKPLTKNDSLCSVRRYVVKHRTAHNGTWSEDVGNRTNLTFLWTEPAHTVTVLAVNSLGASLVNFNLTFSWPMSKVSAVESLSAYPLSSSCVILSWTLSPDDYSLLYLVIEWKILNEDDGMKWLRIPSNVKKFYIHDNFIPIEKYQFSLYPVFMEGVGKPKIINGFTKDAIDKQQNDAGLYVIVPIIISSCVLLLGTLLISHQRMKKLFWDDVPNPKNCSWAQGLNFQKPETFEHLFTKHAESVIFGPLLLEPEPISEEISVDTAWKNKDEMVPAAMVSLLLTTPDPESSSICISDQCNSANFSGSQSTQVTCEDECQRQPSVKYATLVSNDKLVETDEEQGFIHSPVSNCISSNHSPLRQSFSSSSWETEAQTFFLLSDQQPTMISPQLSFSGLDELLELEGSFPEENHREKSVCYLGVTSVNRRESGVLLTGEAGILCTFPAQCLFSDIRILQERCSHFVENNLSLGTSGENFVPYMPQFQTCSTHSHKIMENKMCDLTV
Sequence of murine leptin receptor, long isoform, Y1077F (mouse), P48356 (P48356 22-1162 Y1077F): as the sequence (P48356 22-1162) above, with Y1056F counted along it
Sequence of murine leptin receptor, long isoform, Y985F (mouse), P48356 (P48356 22-1162 Y985F): as the sequence (P48356 22-1162) above, with Y964F counted along it

For “biotin-NHREKSVC(p)Y1077 LGVTSVNR (SEQ ID NO:8) [phosphorylated Y1077 peptide]”, at FLAG-tagged SOCS3, the “binding of SOCS3 to peptide (Western blot, anti-FLAG antibody)” value (“binding of SOCS3 to peptide” below) is recorded as “binds specifically to the phosphorylated Y1077 peptide, but apparently with a much lower affinity”.
For “biotin-QRQPSVK(p)Y985ATLVSNDK (SEQ ID NO:7) [phosphorylated Y985 peptide]”, the “binding of SOCS3 to peptide” value on FLAG-tagged SOCS3 was “clear and specific binding”.
As to “biotin-QRQPSVK(p)Y985ATLVSNDK (SEQ ID NO:7) [non-phosphorylated peptide]”, the “binding of SOCS3 to peptide” value on FLAG-tagged SOCS3 was “did not bind any SOCS3 protein”.

B1: FLAG-tagged rat SOCS3 (expressed from pMET7fSOCS3), O88583 1-225 (protein)
chain: MDYKDDDDKMVTHSKFPAAGMSRPLDTSLRLKTFSSKSEYQLVVNAVRKLQESGFYWSAVTGGEANLLLSAEPAGTFLIRDSSDQRHFFTLSVETQSGTKNLRIQCEGGSFSLQSDPRSTQPVPRFDCVLKLVHHYMPPPGAPSFSLPPTEPSFEVQEQPPAQALPGGTPKRAYYIYSGGEKIPLVLSRPLSSNVATLQHLCRKTVNGHLDSYEKVTQLPGPIREFLDQYDAPL
Take B1: the inhibition of leptin-induced rPAP1 luciferase reporter in assay [1] was 30 to 50 % inhibition; in assay [2], 80 to 90 % inhibition; in assay [3], 80 to 90 % inhibition. The “inhibition of leptin signalling (rPAP1 luciferase)” value is reported as 30-50 % inhibition with leptin receptor [4] (Y985F receptor variant), “no inhibition was observed” with leptin receptor [4] (double Y985/1077F mutant), 80-90 % inhibition in the assay on leptin receptor [4] (mutant Y1077F leptin receptor) and 80-90 % inhibition in the assay with leptin receptor [4] (wild-type leptin receptor). Further, the “inhibition of leptin-mediated reporter induction” value in the assay on leptin receptor [5] was “marked inhibition”.
